Data taken from the supplement of paper PMC9170038.

Tested on: K4 kissing-loop RNA reporter
Experiment: apparent KD of K4 kissing-loop reporter; higher = weaker reporter binding
Settings: Eterna round: R107
Method: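 RNA-MaP round R107: designed RNA switches with theophylline, tryptophan, arginine or FMN aptamers are transcribed on-chip within common flanks. They are titrated with a labelled K4 kissing-loop RNA reporter in RNA-MaP buffer (100 mM Tris pH 7.5, 80 mM KCl, 4 mM MgCl2), without ligand or with the indicated ligand. Median apparent KD per design.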

[1] = input ligand: theophylline 20 uM
[2] = input ligand: tryptophan 2.4 mM
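Note: bound reporter read as fluorescence of individual clusters on recovered sequencing chips by microscopy, with normalized cluster intensities fitted with a binding model.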

| Sequence | apparent KD of K4 kissing-loop reporter (input ligand: FMN 200 uM) | apparent KD of K4 kissing-loop reporter (input ligand: arginine 13.2 mM) | apparent KD of K4 kissing-loop reporter (input ligand: none) | apparent KD of K4 kissing-loop reporter [1] | apparent KD of K4 kissing-loop reporter [2] |
| --- | --- | --- | --- | --- | --- |
| ACGUAGUUCUAGGAUACCAGCCAAGGACGCCAGGACAAAAGUCCUGGCGCCAGUGAUGUUGGCCCUUGGCAGCCUAGAACUACGA [Omei KL Theo B Exc B v5] | 197 nM | 168 nM | 182 nM | 205 nM | 176 nM |
| ACGUAUAUCAGAGGAUAUCGUAUUAAUAUUUUAUCUAUCUAUAUAUGCAGUGAUGUUGCAAUAAUUCGAGAAGGCUGAUUUACGA [JR_ExcFMNB_Sub010] | 112 nM | 124 nM | 91.6 nM | 133 nM | 87.3 nM |
| ACGUCAUCAAAAGGAUAUGCAUCGAAGUGAUGUUUCGUCAUAUCAGUCUGAUUGCAGCAAUUAGGAGCAGAAGGUUUAGUCCGGU [theeternabot_exclusion_KL_FMN_B_11] | 91.6 nM | 80.7 nM | 91.9 nM | 77.6 nM | 83.1 nM |
| ACGUGUCACUGAAGGAGCGUCUACCGAAUACGAGUGAUGUUGGUAUACCACUUAUAUAGUGGACAGGUAGGUCGCAGUGAUACGU [Arg B Ex t4] | 987 nM | 769 nM | 938 nM | 757 nM | 837 nM |
| ACUCUUGCGUAUGAUACCAGCUUGUACCGCCACAUAUAUUCUAAGAGUUGAGUGAUGUUUAGCCCUUGGCAGCAUACUUGUGCGU [theeternabot_exclusion_KL_Theo_B_42] | 706 nM | 546 nM | 778 nM | 606 nM | 702 nM |
| ACUUAGAAUGAAGGAUAUUGGUUACGAGGGCUAACCAAAACGGAUCACUUGUCCAGUGAUGUUGUCCAAGAAGGUCACGUUAAAC [theeternabot_exclusion_KL_FMN_B_44] | 776 nM | 665 nM | 868 nM | 492 nM | 576 nM |
| ACUUAUUGUGUCGAUACCAGCAGGUGACGACGCCUCAUGGCUGACGAGUGAUGUUCGACUUGCCCUUGGCAGCGACAUACGCCGG [theeternabot_sameState_KL_Theo_B_12] | 354 nM | 228 nM | 356 nM | 365 nM | 310 nM |
| ACUUGCACAAAGUCGUCAACCGGUGAAUCAAAGGAUAUUAAUUCACUAAGAAGGUUGAGCCGAGUGAUGUUCGACUGUAAGUCCC [theeternabot_exclusion_KL_FMN_A_34] | 415 nM | 382 nM | 551 nM | 506 nM | 348 nM |
| AGAACUGUCUUGGAUACCAGUGAUGUUGGUAUCGAUGUGUGAGUGCAAAGCGUCCCACAUUGCCCUUGGCAGCUAAGACUGUUCA [Omei KL Theo B Exc A v3] | 158 nM | 134 nM | 148 nM | 179 nM | 144 nM |
| AGAAGAUAUCGUGAUACCAGACCGCGGAGAGGCCGGAAGAGGGUAGUGAUGUUGCAUGCAGUCCCUUGGCAGCACUGACAGUAUU [theeternabot_sameState_KL_Theo_B_40] | 754 nM | 287 nM | 694 nM | 539 nM | 601 nM |
| AGACUACCACACUGUCAAUAGACAGUGGACUAGGAUAUGCUGAUAAGCAGAAGGAGUGAUGUUCCUAGGUAGUCAAUAAAAUAAU [FmnAX 13 G28] | 357 nM | 301 nM | 378 nM | 532 nM | 396 nM |
| AGACUACCACACUGUCAAUAGACAGUGUACUAGGAUAUGCUGAUAAGCAGAAGGAGUGAUGUUCCUUGGUAGUCAAUAAAAUAAU [FmnAX 13 U28+U67] | 357 nM | 237 nM | 258 nM | 268 nM | 238 nM |
| AGACUACCUACACUGUCAAUAGACAGUGACUAGGAUAUGCUGAUAAGCAGAAGGAGUGAUGUUCCUGGUAGUCAAAUAAAAUAAU [FmnAX 12 #SwitchBubble #StaticStem #K4Early] | 498 nM | 295 nM | 311 nM | 323 nM | 278 nM |
| AGACUACUGAUAGGAUAUAACAUACUACUCGUAUACCGAAAGGUAUACGAGACCCUUCUAGUGAUGUUAGAAGGGUCGGUAGUCA [Omei KL FMN B Exc B v8] | 87.5 nM | 70.1 nM | 68.1 nM | 68.6 nM | 74.7 nM |
| AGACUACUGAUAGGAUAUAACAUACUAGCUCGUAUACCAAAGGUAUACGAGCACCUUCUAGUGAUGUUAGAAGGGUCGGUAGUCA [Omei KL FMN B Exc B v3] | 301 nM | 104 nM | 108 nM | 109 nM | 117 nM |
| AGACUACUGAUAGGAUAUAACAUCCUAGUCGUAUACCGAAAGGUAUACGAUAUCCUUCUAGUGAUGUUAGAAGGGUCGGUAGUCA [Omei KL FMN B Exc B v10] | 113 nM | 85.5 nM | 103 nM | 88.3 nM | 98.4 nM |
